Experimental data from patent publication US20080044360A1 (COLLAGEN MEDICAL, published 2008).
Read-outs that look alike come from different tables or passages of the source. Bridge positions count the residues as written; N and C are the ends. Square brackets hold non-standard residues; d marks the D form. Primed or numbered codes have the meaning given here. Side chains are listed from the residue outwards. Ends that are not written are not given here. Gd^D = GdDOTAGA (gadolinium DOTAGA chelate); Bip = N[C@@H](Cc1ccc(-c2ccccc2)cc1)C(=O)O; Gd^T(3) = GdDTPA attached via thiourea; Phg = N[C@H](C(=O)O)c1ccccc1; Dab = NCC[C@H](N)C(=O)O; Gd^T″ = GdDTPA-thiourea; Dap = NC[C@H](N)C(=O)O

Assays:
Assay in all cases: dried collagen assay
[1] = biological target: T1, human collagen type I, acid soluble, extracted from placenta (Sigma C7774) (human, UniProt P02452 162-1218; P08123 80-1119)
T1 construct: tissue extract, gelled and dried in wells; also called dried human collagen; h-Collagen
T1 sequence (P02452 162-1218 limits assumed, chain 1 of 2): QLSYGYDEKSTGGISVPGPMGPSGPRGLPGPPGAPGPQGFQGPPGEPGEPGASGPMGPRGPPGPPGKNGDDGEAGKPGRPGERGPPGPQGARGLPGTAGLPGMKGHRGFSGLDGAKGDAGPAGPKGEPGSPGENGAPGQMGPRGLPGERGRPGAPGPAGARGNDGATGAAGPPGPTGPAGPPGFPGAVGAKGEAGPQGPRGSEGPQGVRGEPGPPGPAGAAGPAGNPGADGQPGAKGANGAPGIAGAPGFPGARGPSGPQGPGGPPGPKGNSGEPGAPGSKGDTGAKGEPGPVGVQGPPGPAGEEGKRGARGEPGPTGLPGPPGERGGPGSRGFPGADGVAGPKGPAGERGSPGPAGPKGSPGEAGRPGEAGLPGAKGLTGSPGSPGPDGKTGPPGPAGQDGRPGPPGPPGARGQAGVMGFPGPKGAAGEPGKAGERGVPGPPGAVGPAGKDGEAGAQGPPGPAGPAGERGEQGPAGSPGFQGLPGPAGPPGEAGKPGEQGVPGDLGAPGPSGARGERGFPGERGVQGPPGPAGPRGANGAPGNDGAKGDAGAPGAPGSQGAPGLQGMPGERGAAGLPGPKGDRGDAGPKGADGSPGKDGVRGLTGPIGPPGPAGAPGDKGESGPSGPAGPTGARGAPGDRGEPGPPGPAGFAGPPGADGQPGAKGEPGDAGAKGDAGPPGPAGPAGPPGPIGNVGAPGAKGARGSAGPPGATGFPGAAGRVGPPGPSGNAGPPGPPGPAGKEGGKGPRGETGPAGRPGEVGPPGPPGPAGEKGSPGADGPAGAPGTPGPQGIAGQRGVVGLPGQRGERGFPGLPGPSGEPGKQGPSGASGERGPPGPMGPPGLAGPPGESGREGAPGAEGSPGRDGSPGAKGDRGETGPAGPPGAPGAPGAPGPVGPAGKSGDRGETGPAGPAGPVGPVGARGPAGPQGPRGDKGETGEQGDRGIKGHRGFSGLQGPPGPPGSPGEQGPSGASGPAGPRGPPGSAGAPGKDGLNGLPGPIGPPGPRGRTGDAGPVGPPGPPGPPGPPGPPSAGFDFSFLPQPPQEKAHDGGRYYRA
T1 sequence (P08123 80-1119 limits assumed, chain 2 of 2): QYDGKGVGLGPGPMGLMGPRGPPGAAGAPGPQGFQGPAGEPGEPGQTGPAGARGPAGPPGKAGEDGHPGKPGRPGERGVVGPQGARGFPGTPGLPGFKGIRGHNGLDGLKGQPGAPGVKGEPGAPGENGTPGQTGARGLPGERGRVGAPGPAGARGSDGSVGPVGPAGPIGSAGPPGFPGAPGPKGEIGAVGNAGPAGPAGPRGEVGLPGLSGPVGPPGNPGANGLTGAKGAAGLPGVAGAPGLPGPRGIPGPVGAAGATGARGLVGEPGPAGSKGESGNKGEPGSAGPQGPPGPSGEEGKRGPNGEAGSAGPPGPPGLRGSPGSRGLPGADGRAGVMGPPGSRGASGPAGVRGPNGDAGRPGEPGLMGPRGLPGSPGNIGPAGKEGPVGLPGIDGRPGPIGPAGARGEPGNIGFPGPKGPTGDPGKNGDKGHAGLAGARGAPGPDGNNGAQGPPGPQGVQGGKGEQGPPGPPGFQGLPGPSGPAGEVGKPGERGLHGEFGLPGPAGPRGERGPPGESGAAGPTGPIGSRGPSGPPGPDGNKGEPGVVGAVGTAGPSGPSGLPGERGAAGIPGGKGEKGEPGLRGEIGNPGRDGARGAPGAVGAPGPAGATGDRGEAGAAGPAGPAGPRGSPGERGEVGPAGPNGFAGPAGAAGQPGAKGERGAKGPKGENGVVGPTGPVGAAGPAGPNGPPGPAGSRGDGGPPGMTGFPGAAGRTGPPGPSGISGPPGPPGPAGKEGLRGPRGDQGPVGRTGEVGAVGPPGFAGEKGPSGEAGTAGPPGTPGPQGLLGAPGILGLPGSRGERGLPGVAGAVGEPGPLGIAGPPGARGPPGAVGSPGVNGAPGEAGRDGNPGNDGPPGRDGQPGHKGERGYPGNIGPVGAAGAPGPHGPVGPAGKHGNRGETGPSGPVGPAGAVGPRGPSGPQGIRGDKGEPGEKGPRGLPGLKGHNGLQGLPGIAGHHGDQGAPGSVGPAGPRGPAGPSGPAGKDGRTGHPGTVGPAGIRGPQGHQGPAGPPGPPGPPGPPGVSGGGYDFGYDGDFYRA

[2] = biological target: T2, rat collagen, acid soluble, type I, rat tail (Upstate 08-115) (rat, UniProt P02454 152-1207; P02466 86-1125)
T2 construct: tissue extract, gelled and dried in wells; also called dried rat collagen
T2 sequence (P02454 152-1207, chain 1 of 2): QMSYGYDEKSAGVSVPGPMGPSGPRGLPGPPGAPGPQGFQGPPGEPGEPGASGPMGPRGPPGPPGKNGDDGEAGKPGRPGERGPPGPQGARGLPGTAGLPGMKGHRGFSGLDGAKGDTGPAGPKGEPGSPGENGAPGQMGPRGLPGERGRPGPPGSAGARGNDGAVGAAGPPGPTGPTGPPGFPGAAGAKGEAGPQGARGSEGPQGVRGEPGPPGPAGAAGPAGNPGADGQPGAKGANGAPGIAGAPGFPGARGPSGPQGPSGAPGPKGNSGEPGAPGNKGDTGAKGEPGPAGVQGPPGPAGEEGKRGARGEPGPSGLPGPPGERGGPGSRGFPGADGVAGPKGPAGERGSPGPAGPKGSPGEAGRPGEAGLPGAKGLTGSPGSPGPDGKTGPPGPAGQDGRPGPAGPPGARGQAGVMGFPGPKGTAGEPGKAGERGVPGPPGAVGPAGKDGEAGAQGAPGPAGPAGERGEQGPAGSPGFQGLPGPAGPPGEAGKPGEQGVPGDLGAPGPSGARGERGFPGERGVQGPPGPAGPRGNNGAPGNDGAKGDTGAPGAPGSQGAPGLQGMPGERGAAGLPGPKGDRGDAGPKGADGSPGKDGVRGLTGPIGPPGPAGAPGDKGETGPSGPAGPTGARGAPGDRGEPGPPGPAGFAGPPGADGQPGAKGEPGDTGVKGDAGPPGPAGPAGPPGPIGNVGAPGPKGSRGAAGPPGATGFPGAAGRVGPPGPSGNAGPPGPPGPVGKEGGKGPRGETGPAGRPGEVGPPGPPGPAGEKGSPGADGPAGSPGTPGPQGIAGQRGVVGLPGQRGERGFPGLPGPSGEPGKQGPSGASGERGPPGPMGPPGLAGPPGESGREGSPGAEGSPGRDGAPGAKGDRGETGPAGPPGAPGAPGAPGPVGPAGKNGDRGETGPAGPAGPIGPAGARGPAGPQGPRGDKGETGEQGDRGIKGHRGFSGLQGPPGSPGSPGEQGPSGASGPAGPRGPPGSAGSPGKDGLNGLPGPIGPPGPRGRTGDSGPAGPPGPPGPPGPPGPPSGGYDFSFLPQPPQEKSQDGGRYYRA
T2 sequence (P02466 86-1125, chain 2 of 2): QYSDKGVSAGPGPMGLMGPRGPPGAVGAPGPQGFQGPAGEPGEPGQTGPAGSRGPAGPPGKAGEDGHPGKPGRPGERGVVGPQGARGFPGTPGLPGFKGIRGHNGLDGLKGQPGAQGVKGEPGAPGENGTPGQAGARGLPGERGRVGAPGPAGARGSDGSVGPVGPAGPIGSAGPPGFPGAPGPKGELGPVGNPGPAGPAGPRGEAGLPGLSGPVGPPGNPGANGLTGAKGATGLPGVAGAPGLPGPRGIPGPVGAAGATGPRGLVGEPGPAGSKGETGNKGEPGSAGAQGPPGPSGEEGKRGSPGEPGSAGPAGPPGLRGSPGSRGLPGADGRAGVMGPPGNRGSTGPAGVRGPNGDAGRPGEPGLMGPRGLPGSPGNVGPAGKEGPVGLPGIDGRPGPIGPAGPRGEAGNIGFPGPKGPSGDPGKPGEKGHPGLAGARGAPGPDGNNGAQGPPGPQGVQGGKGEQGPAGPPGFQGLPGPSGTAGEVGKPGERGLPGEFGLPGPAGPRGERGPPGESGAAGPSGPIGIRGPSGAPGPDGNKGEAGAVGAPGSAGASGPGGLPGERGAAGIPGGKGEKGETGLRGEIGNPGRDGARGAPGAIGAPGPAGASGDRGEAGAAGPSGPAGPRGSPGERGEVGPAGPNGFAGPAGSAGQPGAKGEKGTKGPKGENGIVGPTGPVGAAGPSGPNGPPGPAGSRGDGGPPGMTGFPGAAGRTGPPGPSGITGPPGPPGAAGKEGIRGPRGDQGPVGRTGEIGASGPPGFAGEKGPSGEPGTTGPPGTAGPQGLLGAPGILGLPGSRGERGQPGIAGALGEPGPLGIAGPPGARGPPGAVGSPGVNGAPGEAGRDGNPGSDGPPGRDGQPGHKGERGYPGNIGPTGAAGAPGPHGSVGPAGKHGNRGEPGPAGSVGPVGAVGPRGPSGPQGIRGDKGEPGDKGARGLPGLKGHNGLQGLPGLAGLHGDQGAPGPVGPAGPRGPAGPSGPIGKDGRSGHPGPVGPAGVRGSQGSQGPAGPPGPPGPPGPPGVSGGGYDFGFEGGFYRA

[3] = biological target: T1, human collagen type I, acid soluble, …; remark: listed apart in the source
Description: An additional 90 μL is reserved in a HPLC glass vial as a measure of the total concentration.

| Binder | % bound [1] | % bound [2] | % bound [3] |
| --- | --- | --- | --- |
| {Gd^T(3)}-GK([Gly-Gd^T(3)])WHCTTYFPHHYCLY[Bip]K(Gd^T(3)) (disulfide 5-14; not fully specified (C-terminus)) [Compound ID 977] | 40% | 43% |  |
| {Gd^T(3)}-GK([Gly-Gd^T(3)])WHCYTYFPHHYCLY[Phg]K(Gd^T(3)) (disulfide 5-14; not fully specified (C-terminus)) [Compound ID 986] | 60% | 67% |  |
| {Gd^T″}-GK([Gly-Gd^T″])WHCYTYFPHHYCLY[dY]K(Gd^T″) (disulfide 5-14 (inferred); not fully specified (C-terminus)) [Compound ID 988] | 69% | 71% |  |
| {Gd^T″}-GK([Gly-Gd^T″])WHCYTK(Gd^T″)FPHHYCLYGK(Gd^T″) (disulfide 5-14 (inferred)) [Compound ID 995] | 51% | 42% |  |
| {Gd^T″}-GQWHCYTYFPHHYCLYGK(Gd^T″) (disulfide 5-14 (inferred); not fully specified (C-terminus)) [Compound ID 994] | 86% | 84% |  |
| {Gd^T″}-GK([Gly-Gd^T″])WHCYTYFPHHYCLYVK(Gd^T″) (disulfide 5-14 (inferred); not fully specified (C-terminus)) [Compound ID 989] | 67% | 74% |  |
| {Gd^T″}-GQWHCYTK(Gd^T″)FPHHYCLYGK(Gd^T″) (disulfide 5-14 (inferred); not fully specified (C-terminus)) [Compound ID 993] | 75% | 70% |  |
| TWQCSGNQKWSCEWF (disulfide 4-12 (inferred), cyclic, disulfide) [SEQ ID NO 6] |  |  | 20% |
| {Gd^T″}-[Dap](Gd^T″)[Dap]([Dap-Gd^T″-Gd^T″])WHCYTYFPHHYCVYG (disulfide 5-14; also: X2: inner Dap bears two Gd^T) [Compound ID 1002] | 44% | 45% |  |
| WWGCRQGTGEHWSHCMWF (disulfide 4-15 (inferred), cyclic, disulfide) [SEQ ID NO 100] |  |  | 67% |
| {Gd^D}-GK([Gly-Gd^D])WHCTTK(Gd^D)FPHHYCLY[Bip] (disulfide 5-14) [Compound ID 1001] | 83% | 81% |  |
| {Gd^D}-K(Gd^D)K(Gd^D)AWHCYTYFPHHYCVYG (disulfide 6-15 (inferred)) [Compound ID 1016] | 48% | 50% |  |
| {Gd^D}-K(Gd^D)K(Gd^D)LWHCYTYFPHHYCVYG (disulfide 6-15 (inferred)) [Compound ID 1017] | 25% | 18% |  |
| {Gd^D}-K(Gd^D)K(Gd^D)YWHCYTYFPHHYCVYG (disulfide 6-15 (inferred)) [Compound ID 1018] | 53% | 55% |  |
| NWKCWGVVKWECIWA (disulfide 4-12 (inferred), cyclic, disulfide) [SEQ ID NO 5] |  |  | 24% |
| WTDCQWMDEQLWTCRWD (disulfide 4-14 (inferred), cyclic, disulfide) [SEQ ID NO 94] |  |  | 21% |
| WTDCQWMDEQIWTCRWD (disulfide 4-14 (inferred), cyclic, disulfide) [SEQ ID NO 95] |  |  | 5% |
| {Gd^T″}-GK([Gly-Gd^T″])WHCYTK(Gd^T″)FPHHYCVYYY (disulfide 5-14 (inferred)) [Compound ID 1010] | 92% | 89% |  |
| WWACQKGQHDWEKCHWL (disulfide 4-14 (inferred), cyclic, disulfide) [SEQ ID NO 93] |  |  | 5% |

| Binder | % bound [1] | % bound [2] | % bound [3] |
| --- | --- | --- | --- |
| {Gd^T″}-GK([Gly-Gd^T″])WHCYT[Dab](Gd^T″)FPHHYCVY[Bip] (disulfide 5-14) [Compound ID 1005] | 90% | 95% |  |
| {Gd^T″}-GK([Gly-Gd^T″])WHCYTK(Gd^T″)FPHHYCVY[Bip] (disulfide 5-14) [Compound ID 1004] | 91% | 90% |  |
| {Gd^T″}-GK([Gly-Gd^T″])WHCYTK(Gd^T″)FPHHYCK(Gd^T″)Y[Bip] (disulfide 5-14) [Compound ID 1012] | 91% | 92% |  |
| {Gd^T″}-GYK([Tyr-Gly-Gd^T″])WHCTTYFPHHYCLYG (disulfide 6-15 (inferred); not fully specified (C-terminus)) [Compound ID 981] | 73% | 81% |  |
| {Gd^T″}-GFK([Phe-Gly-Gd^T″])WHCTTYFPHHYCLYG (disulfide 6-15 (inferred); not fully specified (C-terminus)) [Compound ID 983] | 58% | 59% |  |
| {Gd^T″}-GHK([His-Gly-Gd^T″])WHCTTYFPHHYCLYG (disulfide 6-15 (inferred); not fully specified (C-terminus)) [Compound ID 984] | 67% | 69% |  |
| {Gd^T″}-GVK([Val-Gly-Gd^T″])WHCTTYFPHHYCLYG (disulfide 6-15 (inferred); not fully specified (C-terminus)) [Compound ID 982] | 40% | 47% |  |
| WQLCSSRNDHVAYCFVS (disulfide 4-14 (inferred), cyclic, disulfide) [SEQ ID NO 96] |  |  | 17% |
| {Gd^T″}-K(Gd^T″)WHCYTK(Gd^T″)FPHHYCVY[Bip] (disulfide 4-13) [Compound ID 1008] | 94% | 93% |  |
| WISCESSEEKISYCWRA (disulfide 4-14 (inferred), cyclic, disulfide) [SEQ ID NO 97] |  |  | 13% |
| {Gd^T″}-G[Dab]([Gly-Gd^T″])WHCYTK(Gd^T″)FPHHYCVY[Bip] (disulfide 5-14) [Compound ID 1007] | 87% | 92% |  |
| WWTCHMTWSGQWDSCKWH (disulfide 4-15 (inferred), cyclic, disulfide) [SEQ ID NO 101] |  |  | 56% |
| YPACDDQTHLWNLACWPA (disulfide 4-15 (inferred), cyclic, disulfide) [SEQ ID NO 103] |  |  | 2% |
| {Gd^T″}-GK([Gly-Gd^T″])WHCYTK(Gd^T″)FPHHYCVY[Bip]R (disulfide 5-14) [Compound ID 1009] | 93% | 96% |  |
| {Gd^D}-K(Gd^D)K(Gd^D)GWHCYTYFPHHYCTYG (disulfide 6-15 (inferred)) [Compound ID 1015] | 29% | 30% |  |
| NWYCTGTKSWECFWK (disulfide 4-12 (inferred), cyclic, disulfide) [SEQ ID NO 7] |  |  | 11% |
| WAYCMTDPSGKYRYCQNW (disulfide 4-15 (inferred), cyclic, disulfide) [SEQ ID NO 102] |  |  | 31% |
| {Gd^T″}-GK([Gly-Gd^T″])WHCYT[Dap](Gd^T″)FPHHYCVY[Bip] (disulfide 5-14) [Compound ID 1006] | 89% | 87% |  |
| YHACYQAGCYIW (disulfide 4-9 (inferred), cyclic, disulfide) [SEQ ID NO 107] |  |  | 9% |
